Where “and” joins values, the source holds several entries; their conditions need not be identical. Equal entries are not always repeated. Where two headings read alike, the source gives them in different places.
What was measured:
[1] = molecular target: T1, purified recombinant HA protein of H1N1 (A/California/04/09) (Influenza A virus A/California/04/09 …, UniProt P26140 18-529)
[2] = molecular target: T1, purified recombinant HA protein of H1N1 …; assay: SPR, Biacore T200, HA captured via anti-6x his tag antibody, 25 C

B1: CT149 (antibody, V domains shown)
VH: QVQLVQSGAEVKKPGASVKVSCKTSGYSFSTYGVSWVRQAPGQGPEWVGWISAYTGITDYAQKFQGRVTLTTDATTATAFLDLRSLRPDDTATYFCARDKVQGRVEVGSGGRHDYWGQGTLVIVSS
VL: EVVLTQSPGTLALPPGERATLSCRASHRVGSTYIAWYQQKSGQAPRRLIYGASNRATDIPDRFSGSGSGTDFTLTIRRLEPEDSAVYYCQQFSVSPWTFGQGTRVEIKR
- Kd [1]: 30.6 nM
- Kd [2]: 30.2 nM and 31 nM
- koff [2]: 0.0388 s⁻¹ and 0.0399 s⁻¹
- kon [2]: 1.29e+06 M⁻¹ s⁻¹

Source: patent publication US20160052997A1 (CELLTRION, published 2016)
